Test results reported in the Immune Epitope Database (IEDB).
pKd: −log10 of the molar value.

Tests used:
HLA-B*57:01 [1] = experiment: IEDB peptide-MHC binding, purified MHC/competitive/radioactivity; filed as Kd, often an IC50 or EC50 that approximates it; ≥ and ≤ were set here for values at or beyond the usual limits of such assays
HLA-B*58:01 [2] = experiment: as above
HLA-A*68:02 [3] = experiment: IEDB peptide-MHC binding, purified MHC/competitive/fluorescence; filed as Kd, often an IC50 or EC50 that approximates it; ≥ and ≤ were set here for values at or beyond the usual limits of such assays
HLA-A*31:01 [4] = experiment: as above
HLA-B*18:01 [5] = experiment: as above
HLA-B*15:01 [6] = experiment: as above; conditions: source organism: Variola major virus
HLA-A*26:02 [7] = experiment: as above
HLA-A*11:01 [8] = experiment: as above
HLA-B*57:01 [9] = experiment: IEDB peptide-MHC binding, purified MHC/direct/fluorescence; filed as Kd, often an IC50 or EC50 that approximates it; ≥ and ≤ were set here for values at or beyond the usual limits of such assays
HLA-A*01:01 = experiment: as above
HLA-C*14:02 = experiment: as above; conditions: source organism: Variola major virus
HLA-B*39:01 = experiment: as above
HLA-B*07:02 = experiment: as above
HLA-A*26:03 = experiment: as above
HLA-B*58:01 [10] = experiment: as above
HLA-A*30:01 [11] = experiment: as above; conditions: source organism: Variola virus
HLA-A*24:03 = experiment: as above
HLA-C*15:02 = experiment: as above; conditions: source organism: Variola major virus
HLA-A*26:01 [12] = experiment: as above
HLA-A*69:01 = experiment: as above
HLA-B*08:03 = experiment: as above
HLA-B*15:09 = experiment: as above
HLA-A*02:01 [13] = experiment: as above
HLA-A*02:06 = experiment: IEDB peptide-MHC binding, purified MHC/competitive/fluorescence; filed as Kd, often an IC50 or EC50 that approximates it; ≥ and ≤ were set here for values at or beyond the usual limits of such assays; conditions: source organism: Orthomarburgvirus marburgense
HLA-A*30:01 [14] = experiment: as above; conditions: source organism: Orthomarburgvirus marburgense
HLA-A*26:01 [15] = experiment: as above; conditions: source organism: Orthomarburgvirus marburgense
HLA-A*02:01 [16] = experiment: as above; conditions: source organism: Orthomarburgvirus marburgense
HLA-A*68:02 [17] = experiment: IEDB peptide-MHC binding, purified MHC/direct/fluorescence; filed as Kd, often an IC50 or EC50 that approximates it; ≥ and ≤ were set here for values at or beyond the usual limits of such assays
HLA-B*27:05 = experiment: as above
HLA-A*31:01 [18] = experiment: as above
HLA-B*15:01 [19] = experiment: as above
HLA-B*08:02 = experiment: as above
HLA-B*48:01 = experiment: as above
HLA-B*15:17 [20] = experiment: as above
HLA-B*46:01 = experiment: as above
HLA-B*08:01 = experiment: as above
HLA-B*18:01 [21] = experiment: as above; conditions: source organism: Marburg virus - Musoke, Kenya, 1980
HLA-A*26:02 [22] = experiment: as above; conditions: source organism: Ravn virus - Ravn, Kenya, 1987
HLA-B*40:01 = experiment: as above; conditions: source organism: Marburg virus - Musoke, Kenya, 1980
HLA-A*11:01 [23] = experiment: as above; conditions: source organism: Marburg virus - Musoke, Kenya, 1980
HLA-A*03:01 = experiment: as above
HLA-B*57:01 [24] = experiment: IEDB peptide-MHC binding, purified MHC/competitive/fluorescence; filed as Kd, often an IC50 or EC50 that approximates it; ≥ and ≤ were set here for values at or beyond the usual limits of such assays; conditions: source organism: Influenza A virus H3N2
HLA-B*35:01 = experiment: as above; conditions: source organism: Influenza A virus H3N2
HLA-B*15:17 [25] = experiment: as above; conditions: source organism: Influenza A virus H3N2
[26] = source organism: Dengue virus 3 Martinique/1243/1999
[27] = source organism: Variola major virus
[28] = source organism: Buffalopox virus
[29] = source organism: Dengue virus 4 Philippines/H241/1956
[30] = source organism: Orthomarburgvirus marburgense
[31] = source organism: Lake Victoria marburgvirus - Popp
[32] = source organism: Marburg virus - Musoke, Kenya, 1980
[33] = source organism: Ravn virus - Ravn, Kenya, 1987
[34] = source organism: Influenza A virus H3N2
[35] = source organism: Influenza A virus (A/Swine/Italy/25823/94(H3N2))
[36] = source organism: Influenza A virus(A/swine/Shandong/fNY/2003(H9N2))

LGKAYAQMW gave a pKd (HLA-B*57:01 [1]; [26]) of 6.68.
AAVLLLVTHY showed a pKd (HLA-B*58:01 [2]; source organism: Dengue virus 3 Singapore/8120/1995) of 5.38.
In the case of RYPGVMYAF, the pKd (HLA-A*68:02 [3]; [27]) was no more than 4.70, the pKd (HLA-A*31:01 [4]; [27]) was 6.92 and the pKd (HLA-B*18:01 [5]; [27]) was 6.00. The pKd (HLA-B*15:01 [6]) was 5.44, the pKd (HLA-A*26:02 [7]; [27]) was 5.32 and the pKd (HLA-A*11:01 [8]; [27]) was 5.37. The pKd (HLA-B*57:01 [9]; [28]) was no more than 4.70, the pKd (HLA-A*01:01; [28]) was no more than 4.70 and the pKd (HLA-C*14:02) was 7.80. It also gave a pKd (HLA-B*39:01; source organism: Variola virus) of no more than 4.70, a pKd (HLA-B*07:02; [28]) of no more than 4.70 and a pKd (HLA-A*26:03; source organism: Variola virus) of no more than 4.70. For the same sequence, the pKd (HLA-B*58:01 [10]; [28]) was no more than 4.70, the pKd (HLA-A*30:01 [11]) was 5.40 and the pKd (HLA-A*24:03; [28]) was 8.70. It also gave a pKd (HLA-C*15:02) of no more than 4.70, a pKd (HLA-A*26:01 [12]; source organism: Variola virus) of no more than 4.70 and a pKd (HLA-A*69:01; [28]) of no more than 4.70. It also gave a pKd (HLA-B*08:03; source organism: Variola virus) of no more than 4.70, a pKd (HLA-B*15:09; source organism: Variola virus) of no more than 4.70 and a pKd (HLA-A*02:01 [13]; [28]) of no more than 4.70.
Work on RTSCLQKQSH yielded a pKd (HLA-B*57:01 [1]; [29]) of 6.21.
Work on KAAVEDEDF yielded a pKd (HLA-B*58:01 [2]; [26]) of 7.12.
In the case of TTRLENIMW, the pKd (HLA-B*57:01 [1]; [29]) was 7.88.
Work on FLMRNAIQY yielded a pKd (HLA-A*02:06) of 5.64, a pKd (HLA-A*26:02 [7]; [30]) of 5.72 and a pKd (HLA-A*30:01 [14]) of 5.56. It also gave a pKd (HLA-A*11:01 [8]; [30]) of 5.41, a pKd (HLA-A*26:01 [15]) of 5.59 and a pKd (HLA-A*02:01 [16]) of 6.60. The pKd (HLA-A*68:02 [17]; [31]) was no more than 4.70, the pKd (HLA-B*27:05; [31]) was no more than 4.70 and the pKd (HLA-B*57:01 [9]; [31]) was no more than 4.70. It also gave a pKd (HLA-A*01:01; [31]) of 7.43, a pKd (HLA-A*31:01 [18]; [31]) of no more than 4.70 and a pKd (HLA-B*15:01 [19]; [31]) of 6.73. It also gave a pKd (HLA-B*08:02; [30]) of no more than 4.70, a pKd (HLA-B*39:01; [30]) of no more than 4.70 and a pKd (HLA-B*07:02; [31]) of no more than 4.70. The pKd (HLA-A*26:03; [30]) was no more than 4.70, the pKd (HLA-B*58:01 [10]; [31]) was no more than 4.70 and the pKd (HLA-B*48:01; [31]) was no more than 4.70. For the same sequence, the pKd (HLA-B*15:17 [20]; [31]) was 6.80, the pKd (HLA-A*69:01; [31]) was no more than 4.70 and the pKd (HLA-B*08:03; [30]) was no more than 4.70. The pKd (HLA-B*15:09; [30]) was no more than 4.70 and the pKd (HLA-B*46:01; [31]) was 5.38.
With CVFKFIVAK the pKd (HLA-A*68:02 [17]; [32]) was no more than 4.70, the pKd (HLA-B*27:05; [32]) was no more than 4.70 and the pKd (HLA-B*08:01; [33]) was no more than 4.70. For the same sequence, the pKd (HLA-B*57:01 [9]; [32]) was no more than 4.70, the pKd (HLA-A*01:01; [32]) was no more than 4.70 and the pKd (HLA-A*31:01 [18]; [32]) was 6.56. For the same sequence, the pKd (HLA-B*18:01 [21]) was no more than 4.70, the pKd (HLA-B*15:01 [19]; [32]) was no more than 4.70 and the pKd (HLA-A*26:02 [22]) was no more than 4.70. For the same sequence, the pKd (HLA-B*07:02; [32]) was no more than 4.70, the pKd (HLA-A*26:03; [33]) was no more than 4.70 and the pKd (HLA-B*40:01) was no more than 4.70. For the same sequence, the pKd (HLA-B*58:01 [10]; [32]) was no more than 4.70, the pKd (HLA-B*48:01; [32]) was no more than 4.70 and the pKd (HLA-B*15:17 [20]; [32]) was no more than 4.70. The pKd (HLA-A*11:01 [23]) was 7.51, the pKd (HLA-A*26:01 [12]; [33]) was no more than 4.70 and the pKd (HLA-A*69:01; [32]) was no more than 4.70. It also gave a pKd (HLA-B*08:03; [33]) of no more than 4.70, a pKd (HLA-A*03:01; [32]) of 6.41 and a pKd (HLA-A*02:01 [13]; [32]) of no more than 4.70. It also gave a pKd (HLA-B*46:01; [32]) of no more than 4.70.
For SFSFGGFTF, the pKd (HLA-A*68:02 [3]; [34]) was 5.61, the pKd (HLA-B*57:01 [24]) was 5.63 and the pKd (HLA-A*31:01 [4]; [34]) was no more than 4.70. It also gave a pKd (HLA-B*18:01 [5]; [34]) of 6.70, a pKd (HLA-A*26:02 [7]; [34]) of 5.74 and a pKd (HLA-B*35:01) of 6.55. It also gave a pKd (HLA-B*15:17 [25]) of 7.40, a pKd (HLA-A*11:01 [8]; [34]) of no more than 4.70 and a pKd (HLA-B*27:05; [35]) of no more than 4.70. The pKd (HLA-B*08:01; [36]) was no more than 4.70, the pKd (HLA-A*01:01; [35]) was no more than 4.70 and the pKd (HLA-B*15:01 [19]; [35]) was 7.43. It also gave a pKd (HLA-B*08:02; [36]) of no more than 4.70, a pKd (HLA-B*07:02; [35]) of no more than 4.70 and a pKd (HLA-B*58:01 [10]; [35]) of 7.20. It also gave a pKd (HLA-A*24:03; [35]) of no less than 9.00, a pKd (HLA-B*08:03; [36]) of no more than 4.70 and a pKd (HLA-A*03:01; [35]) of no more than 4.70. The pKd (HLA-B*15:09; [36]) was no more than 4.70 and the pKd (HLA-A*02:01 [13]; [35]) was no more than 4.70.
